From ChEMBL document CHEMBL1143427, “Interactions of ceftobiprole with beta-lactamases from molecular classes A to D” (Antimicrob Agents Chemother, 2007)

Key:
Details in all cases: Enterobacter cloacae
[1] = substrate: CO/N=C(\C(=O)N[C@@H]1C(=O)N2C(C(=O)[O-])=C(C[N+]3(C)CCCC3)CS[C@H]12)c1csc(N)n1
Description: Activity of Enterobacter cloacae 4080 AmpC (P99) assessed as drug hydrolysis by spectrophotometry

[2] = substrate: CC1(C)S[C@@H]2[C@H](NC(=O)Cc3ccccc3)C(=O)N2[C@H]1C(=O)O
Description: (§1) Activity of Enterobacter cloacae 4092 AmpC (E2) assessed as drug hydrolysis by spectrophotometry

[3] = substrate: Nc1nc(/C(=N/O)C(=O)N[C@@H]2C(=O)N3C(C(=O)O)=C(/C=C4\CCN([C@@H]5CCNC5)C4=O)CS[C@H]23)ns1
Description: as §1

[4] = substrate: CO/N=C(\C(=O)N[C@@H]1C(=O)N2C(C(=O)[O-])=C(C[N+]3(C)CCCC3)CS[C@H]12)c1csc(N)n1; remark: listed apart in the source
Description: as §1

[5] = substrate: O=C(Cc1cccs1)N[C@@H]1C(=O)N2C(C(=O)O)=C(/C=C/c3ccc([N+](=O)[O-])cc3[N+](=O)[O-])CS[C@H]12
Description: as §1

[6] = substrate: O=C(Cc1cccs1)N[C@@H]1C(=O)N2C(C(=O)[O-])=C(C[n+]3ccccc3)CS[C@H]12
Description: as §1

[7] = substrate: CC(C)(O/N=C(\C(=O)N[C@@H]1C(=O)N2C(C(=O)[O-])=C(C[n+]3ccccc3)CS[C@H]12)c1csc(N)n1)C(=O)O
Description: as §1

B1: Beta-lactamase (Enterobacter cloacae), P05364 (protein)
chain: MMRKSLCCALLLGISCSALATPVSEKQLAEVVANTITPLMKAQSVPGMAVAVIYQGKPHYYTFGKADIAANKPVTPQTLFELGSISKTFTGVLGGDAIARGEISLDDAVTRYWPQLTGKQWQGIRMLDLATYTAGGLPLQVPDEVTDNASLLRFYQNWQPQWKPGTTRLYANASIGLFGALAVKPSGMPYEQAMTTRVLKPLKLDHTWINVPKAEEAHYAWGYRDGKAVRVSPGMLDAQAYGVKTNVQDMANWVMANMAPENVADASLKQGIALAQSRYWRIGSMYQGLGWEMLNWPVEANTVVEGSDSKVALAPLPVAEVNPPAPPVKASWVHKTGSTGGFGSYVAFIPEKQIGIVMLANTSYPNPARVEAAYHILEALQ
Work on B1 yielded a Km [1] of 67 µM, a kcat [1] of 0.27 s⁻¹ and a Km [2] of 8.3 µM. For the same protein, the kcat [2] was 65 s⁻¹, the Km [3] was 26 µM and the kcat [3] was less than 0.057 s⁻¹. The Km [4] was greater than 630 µM, the kcat [4] was less than 0.021 s⁻¹ and the Km [5] was 56 µM. It also gave a kcat [5] of 570 s⁻¹, a Km [6] of 480 µM and a kcat [6] of 690 s⁻¹. It also gave a Km [7] of 110 µM and a kcat [7] of 0.16 s⁻¹.
